Source: US20090317363A1

B1: RANTES derivative: signature sequence SEQ ID NO: 4 fused to positions 10-68 of native RANTES (SEQ ID NO: 1) (ligand)
chain: QGPPLMWLQVCCFAYIARPLPRAHIKEYFYTSGKCSNPAVVFVTRKNRQVCANPEKKWVREYINSLEMS
B2: RANTES derivative: signature sequence SEQ ID NO: 5 fused to positions 10-68 of native RANTES (SEQ ID NO: 1) (ligand)
chain: QGPPLMWTQSCCFAYIARPLPRAHIKEYFYTSGKCSNPAVVFVTRKNRQVCANPEKKWVREYINSLEMS
B3: RANTES derivative: signature sequence SEQ ID NO: 35 fused to positions 10-68 of native RANTES (SEQ ID NO: 1) (ligand)
chain: QGPPGMWSQSCCFAYIARPLPRAHIKEYFYTSGKCSNPAVVFVTRKNRQVCANPEKKWVREYINSLEMS
B4: RANTES derivative: signature sequence SEQ ID NO: 32 fused to positions 10-68 of native RANTES (SEQ ID NO: 1) (ligand)
chain: QGPPGQWSQVCCFAYIARPLPRAHIKEYFYTSGKCSNPAVVFVTRKNRQVCANPEKKWVREYINSLEMS
B5: RANTES derivative: signature sequence SEQ ID NO: 31 fused to positions 10-68 of native RANTES (SEQ ID NO: 1) (ligand)
chain: QGPPLSWLQSCCFAYIARPLPRAHIKEYFYTSGKCSNPAVVFVTRKNRQVCANPEKKWVREYINSLEMS
B6: RANTES derivative: signature sequence SEQ ID NO: 30 fused to positions 10-68 of native RANTES (SEQ ID NO: 1) (ligand)
chain: QGPPLSWLQVCCFAYIARPLPRAHIKEYFYTSGKCSNPAVVFVTRKNRQVCANPEKKWVREYINSLEMS
B7: RANTES derivative: signature sequence SEQ ID NO: 37 fused to positions 10-68 of native RANTES (SEQ ID NO: 1) (ligand)
chain: QGPPLMGTQSCCFAYIARPLPRAHIKEYFYTSGKCSNPAVVFVTRKNRQVCANPEKKWVREYINSLEMS
B8: RANTES derivative: signature sequence SEQ ID NO: 36 fused to positions 10-68 of native RANTES (SEQ ID NO: 1) (ligand)
chain: QGPPLQWRQSCCFAYIARPLPRAHIKEYFYTSGKCSNPAVVFVTRKNRQVCANPEKKWVREYINSLEMS
B9: RANTES derivative: signature sequence SEQ ID NO: 34 fused to positions 10-68 of native RANTES (SEQ ID NO: 1) (ligand)
chain: QGPPLSWQQSCCFAYIARPLPRAHIKEYFYTSGKCSNPAVVFVTRKNRQVCANPEKKWVREYINSLEMS
B10: RANTES derivative: signature sequence SEQ ID NO: 33 fused to positions 10-68 of native RANTES (SEQ ID NO: 1) (ligand)
chain: QGPPMMAGLSCCFAYIARPLPRAHIKEYFYTSGKCSNPAVVFVTRKNRQVCANPEKKWVREYINSLEMS
B11: RANTES derivative: signature sequence SEQ ID NO: 38 fused to positions 10-68 of native RANTES (SEQ ID NO: 1) (ligand)
chain: QGPPLMQLQVCCFAYIARPLPRAHIKEYFYTSGKCSNPAVVFVTRKNRQVCANPEKKWVREYINSLEMS
B12: RANTES derivative: signature sequence SEQ ID NO: 39 fused to positions 10-68 of native RANTES (SEQ ID NO: 1) (ligand)
chain: QGPPLSWSQVCCFAYIARPLPRAHIKEYFYTSGKCSNPAVVFVTRKNRQVCANPEKKWVREYINSLEMS

The binders below were run against CCR5 (UniProt P51681) (assay: cell-based or functional assay).

Compared with B1, B2 is lower in CCR5 sequestration (%) (% of control surface CCR5): 3 for the first, 0 for the second.

B3 and B4 are the same in CCR5 sequestration (%) (% of control surface CCR5): 5 for the first, 5 for the second.

First: B5
Second: B6
The CCR5 sequestration (%) (% of control surface CCR5) of the first is higher: 6 for the first, 4 for the second.

First: B7
Second: B8
The CCR5 sequestration (%) (% of control surface CCR5) of the first is lower: 5 for the first, 7 for the second.

Compared with B9, B10 is lower in CCR5 sequestration (%) (% of control surface CCR5): 8 for the first, 0 for the second.

First: B11
Second: B12
The CCR5 sequestration (%) (% of control surface CCR5) of the first is lower: 3 for the first, 5 for the second.

First: B1
Second: B2
The CCR5 signalling (%) (% of Emax of PSC-RANTES) of the first is lower: 4.6 for the first, 5.3 for the second.

Compared with B3, B4 is higher in CCR5 signalling (%) (% of Emax of PSC-RANTES): 4.9 for the first, 6 for the second.

Going from B5 to B6, the CCR5 signalling (%) (% of Emax of PSC-RANTES) rises from 3.6 to 4.1.

First: B7
Second: B8
The CCR5 signalling (%) (% of Emax of PSC-RANTES) of the first is lower: 0.7 for the first, 5.1 for the second.

Compared with B9, B10 is lower in CCR5 signalling (%) (% of Emax of PSC-RANTES): 5.1 for the first, 0.2 for the second.

Compared with B11, B12 is higher in CCR5 signalling (%) (% of Emax of PSC-RANTES): 0.3 for the first, 1.7 for the second.

B1 and B2 are the same in anti-HIV potency (IC50, nM) by cell fusion assay: 0.02 nM for the first, 0.02 nM for the second.

Compared with B3, B4 is 1.7-fold lower in anti-HIV potency (IC50, nM) by cell fusion assay: 0.05 nM for the first, 0.03 nM for the second.

First: B5
Second: B6
The anti-HIV potency (IC50, nM) by cell fusion assay of the first is 2-fold higher: 0.02 nM for the first, 0.01 nM for the second.

Compared with B7, B8 is 1.8-fold lower in anti-HIV potency (IC50, nM) by cell fusion assay: 0.09 nM for the first, 0.05 nM for the second.

B9 and B10 are the same in anti-HIV potency (IC50, nM) by cell fusion assay: 0.03 nM for the first, 0.03 nM for the second.

B11 and B12 are the same in anti-HIV potency (IC50, nM) by cell fusion assay: 0.1 nM for the first, 0.1 nM for the second.

Going from B1 to B2, the anti-HIV potency (IC50, nM) by viral replication assay rises from 0.38 nM to 0.576 nM (1.5-fold).
